Measured values taken from publication PMC5667929, “Combinatorial action of Grainyhead, Extradenticle and Notch in regulating Hox mediated apoptosis in Drosophila larval CNS”.

How the values were obtained:
[1] = molecular target: AbdA (Hox);Exd/Hth-HM;Grh (Drosophila melanogaster?;Drosophila …, UniProt P29555;P40427;O46339;P13002 261-590;1-376;127-211;551-1333, ||); experiment: EMSA; EMSA, 20 ul, 30 min, room temperature; 5X buffer as printed: 20% glycerol, 1 mg/ml BSA, 2.5 mM EDTA, '50mM 1M tris' pH 7.5, 50 mM KCl, 5 mM MgCl2, 2.5 mM DTT, 90 ug/ml poly(dI-dC); proteins 100-200 ng; conditions: protein: recombinant;recombinant;recombinant; tags: 6xHis;6xHis;6xHis; copies: 1;1;1;2
[2] = molecular target: AbdA (Hox);Exd/Hth-HM (Drosophila melanogaster?;Drosophila …, UniProt P29555;P40427;O46339 261-590;1-376;127-211, |); experiment: as above; conditions: protein: recombinant;recombinant; tags: 6xHis;6xHis; copies: 1;1;1
[3] = molecular target: AbdA (Hox);Grh (Drosophila melanogaster?;Drosophila …, UniProt P29555;P13002 261-590;551-1333, |); experiment: EMSA; 'compromised'; later 'abolished completely'; EMSA, 20 ul, 30 min, room temperature; 5X buffer as printed: 20% glycerol, 1 mg/ml BSA, 2.5 mM EDTA, '50mM 1M tris' pH 7.5, 50 mM KCl, 5 mM MgCl2, 2.5 mM DTT, 90 ug/ml poly(dI-dC); proteins 100-200 ng; conditions: protein: recombinant;recombinant; tags: 6xHis;6xHis; copies: 1;2
[4] = molecular target: Grh (UniProt P13002 551-1333); experiment: EMSA; EMSA, 20 ul, 30 min, room temperature; 5X buffer as printed: 20% glycerol, 1 mg/ml BSA, 2.5 mM EDTA, '50mM 1M tris' pH 7.5, 50 mM KCl, 5 mM MgCl2, 2.5 mM DTT, 90 ug/ml poly(dI-dC); proteins 100-200 ng; conditions: protein: recombinant; tags: 6xHis; chain copies: 2
[5] = molecular target: T1, Exd/Hth-HM (UniProt P40427;O46339 1-376;127-211); experiment: EMSA; no significant binding; EMSA, 20 ul, 30 min, room temperature; 5X buffer as printed: 20% glycerol, 1 mg/ml BSA, 2.5 mM EDTA, '50mM 1M tris' pH 7.5, 50 mM KCl, 5 mM MgCl2, 2.5 mM DTT, 90 ug/ml poly(dI-dC); proteins 100-200 ng; conditions: protein: recombinant; tags: 6xHis; copies: 1;1
T1 sequence 1: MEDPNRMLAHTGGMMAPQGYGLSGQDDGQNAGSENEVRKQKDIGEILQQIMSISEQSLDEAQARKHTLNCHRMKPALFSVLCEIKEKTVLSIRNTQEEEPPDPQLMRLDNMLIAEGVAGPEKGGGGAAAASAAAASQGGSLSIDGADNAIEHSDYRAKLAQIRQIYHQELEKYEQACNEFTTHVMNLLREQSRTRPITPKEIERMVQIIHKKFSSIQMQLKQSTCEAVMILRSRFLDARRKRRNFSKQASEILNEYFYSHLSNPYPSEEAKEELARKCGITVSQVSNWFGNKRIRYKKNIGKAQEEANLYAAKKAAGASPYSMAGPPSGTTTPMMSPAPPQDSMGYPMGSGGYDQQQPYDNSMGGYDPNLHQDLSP
T1 sequence 2: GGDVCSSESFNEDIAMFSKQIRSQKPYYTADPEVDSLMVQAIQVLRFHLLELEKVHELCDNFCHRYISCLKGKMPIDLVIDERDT

[6] = molecular target: AbdA (Hox) (UniProt P29555 261-590); experiment: as above; conditions: protein: recombinant; tags: 6xHis
Chain of AbdA (Hox) (P29555 261-590): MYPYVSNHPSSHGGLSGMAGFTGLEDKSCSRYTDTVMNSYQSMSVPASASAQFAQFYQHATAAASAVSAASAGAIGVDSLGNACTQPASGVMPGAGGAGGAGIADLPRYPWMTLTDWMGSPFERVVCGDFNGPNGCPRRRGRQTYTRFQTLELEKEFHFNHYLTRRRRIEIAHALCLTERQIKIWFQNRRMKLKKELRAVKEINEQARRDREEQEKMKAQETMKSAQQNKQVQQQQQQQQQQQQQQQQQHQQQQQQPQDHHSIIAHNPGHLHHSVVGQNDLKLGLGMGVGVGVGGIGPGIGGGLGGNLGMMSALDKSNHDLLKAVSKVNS

Chain of AbdA (Hox);Exd/Hth-HM (P29555 261-590, one chain of several): as the sequence (P29555 261-590) above
Chain of AbdA (Hox);Exd/Hth-HM;Grh (P29555 261-590, chain 1 of 4, one chain of several): as the sequence (P29555 261-590) above
Chain of AbdA (Hox);Exd/Hth-HM;Grh (P13002 551-1333, chain 4 of 4, one chain of several): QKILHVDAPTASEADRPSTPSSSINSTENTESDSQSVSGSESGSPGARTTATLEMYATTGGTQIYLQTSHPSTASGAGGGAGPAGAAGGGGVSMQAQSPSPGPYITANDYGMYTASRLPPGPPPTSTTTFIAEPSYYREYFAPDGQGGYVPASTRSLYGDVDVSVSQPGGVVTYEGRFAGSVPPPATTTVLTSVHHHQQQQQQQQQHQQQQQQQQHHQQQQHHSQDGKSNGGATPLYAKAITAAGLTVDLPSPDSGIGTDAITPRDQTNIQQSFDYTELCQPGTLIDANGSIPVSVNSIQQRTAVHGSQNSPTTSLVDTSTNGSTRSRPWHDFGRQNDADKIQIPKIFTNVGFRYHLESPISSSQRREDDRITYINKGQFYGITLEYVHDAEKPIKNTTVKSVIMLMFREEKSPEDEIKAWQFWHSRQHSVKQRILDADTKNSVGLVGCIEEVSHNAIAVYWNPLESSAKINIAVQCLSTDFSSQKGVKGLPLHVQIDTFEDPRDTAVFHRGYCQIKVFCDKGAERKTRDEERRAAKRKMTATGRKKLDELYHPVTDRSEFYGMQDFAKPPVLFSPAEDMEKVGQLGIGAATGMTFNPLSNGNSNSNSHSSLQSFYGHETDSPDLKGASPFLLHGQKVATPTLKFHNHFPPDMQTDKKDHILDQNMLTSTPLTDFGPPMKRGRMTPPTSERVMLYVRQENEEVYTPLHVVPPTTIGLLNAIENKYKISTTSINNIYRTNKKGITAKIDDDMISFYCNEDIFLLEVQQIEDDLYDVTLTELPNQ
Chain of AbdA (Hox);Grh (P29555 261-590, chain 1 of 2): as the sequence (P29555 261-590) above
Chain of AbdA (Hox);Grh (P13002 551-1333, chain 2 of 2): as the sequence (P13002 551-1333, chain 4 of 4, one chain of several) above
Chain of Grh (P13002 551-1333): as the sequence (P13002 551-1333, chain 4 of 4, one chain of several) above

B1: motif-30 Grh1 mutant (dsDNA)
DNA 1: GAAACACGATAACCATAACTAATCC
DNA 2: GGATTAGTTATGGTTATCGTGTTTC
- binding result [1]: no binding
- binding result [2]: binds
- binding result [3]: no binding

B2: motif-24 (dsDNA)
DNA 1: CGCTCATAAAGTTAACCAACGATTTCATTCCTAAAC
DNA 2: GTTTAGGAATGAAATCGTTGGTTAACTTTATGAGCG
- binding result [4]: no binding
- binding result [2]: binds
- binding result [5]: no binding
- binding result [6]: no binding
